Test results from paper PMC7469494 (Autophagy, 2019).

Target: the molecule itself
Assay: SAXS

B1: Vac8[40–578] (domain or fragment, S. cerevisiae, UniProt P39968 40-578, looked up)
chain: QLDFYSGGPLKALTTLVYSDNLNLQRSAALAFAEITEKYVRQVSREVLEPILILLQSQDPQIQVAACAALGNLAVNNENKLLIVEMGGLEPLINQMMGDNVEVQCNAVGCITNLATRDDNKHKIATSGALIPLTKLAKSKHIRVQRNATGALLNMTHSEENRKELVNAGAVPVLVSLLSSTDPDVQYYCTTALSNIAVDEANRKKLAQTEPRLVSKLVSLMDSPSSRVKCQATLALRNLASDTSYQLEIVRAGGLPHLVKLIQSDSIPLVLASVACIRNISIHPLNEGLIVDAGFLKPLVRLLDYKDSEEIQCHAVSTLRNLAASSEKNRKEFFESGAVEKCKELALDSPVSVQSEISACFAILALADVSKLDLLEANILDALIPMTFSQNQEVSGNAAAALANLCSRVNNYTKIIEAWDRPNEGIRGFLIRFLKSDYATFEHIALWTILQLLESHNDKVEDLVKNDDDIINGVRKMADVTFERLQRSGIDVKNPGSNNNPSSNDNNSNNNDTGSEHQPVEDASLELYNITQQILQFLH
binding result: binds
